The record followed here is article PMC9541495, “Understanding the interaction of 14‐3‐3 proteins with hDMX and hDM2: a structural and biophysical study” (The Febs Journal, 2022).

[ ]: non-standard residue; d: D form. pS = N[C@@H](COP(=O)(O)O)C(=O)O; FAM = 5,6-carboxyfluorescein; Ahx = NCCCCCC(=O)O

One may read the Kd as the constant that tells how readily two partners part at equilibrium. In general, koff refers to the rate constant with which the complex falls apart. The term kon denotes a measure of how fast the partners come together. Low readings indicate slow association, high ones fast association. One may read the stoichiometry N as a count of units in the complex or per binding partner.

B4: FAM‐Ahx‐hDMX_(335‐373) ^pSer342/pSer367 (peptide)
peptide: {FAM-Ahx}-SKLTHSL[pS]TSDITAIPEKENEGNDVPDCRRTI[pS]APVVRP-NH2
notes: hDMX (human double minute 4 protein, hDM4), human, residues 335-373; Tracer form used in the FA assays; source: synthetic peptide (Fmoc SPPS on Rink amide ProTide resin, HPLC purified)

Conditions in all cases: both partners purified
Assay [1] addresses B4. In words: fluorescence polarisation; fluorescence anisotropy, direct titration: 14-3-3 protein titrated (1/2 dilution series) against 50 nM FAM-Ahx tracer peptide; 10 mM HEPES, 150 mM NaCl, 0.1% Tween 20, 0.1% BSA, pH 7.4; 384 well plates, triplicates; protein concentration as 14-3-3 monomer; 1:1 fit, biphasic curves fitted as two separate 1:1 events (Kd1, Kd2).
In assay [2] the target is T1, 14‐3‐3η (human, UniProt Q04917 1-246).
T1 construct: 14-3-3 eta, human, full-length protein from the pProEx HTb-His-14-3-3 construct; Captured on an NTA chip in SPR; source: E. coli BL21(DE3), purified (Ni2+-NTA, dialysis)
T1 sequence (looked up): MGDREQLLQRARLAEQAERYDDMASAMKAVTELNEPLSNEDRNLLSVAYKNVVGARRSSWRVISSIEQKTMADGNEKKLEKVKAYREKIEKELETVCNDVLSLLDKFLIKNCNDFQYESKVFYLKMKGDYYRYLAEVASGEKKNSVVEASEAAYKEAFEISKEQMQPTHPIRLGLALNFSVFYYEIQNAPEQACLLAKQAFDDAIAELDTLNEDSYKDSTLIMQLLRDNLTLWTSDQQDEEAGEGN
In words: SPR; 14-3-3η immobilised on an NTA sensor chip (Ni2+ capture and amine coupling, about 2000 RU); acetylated peptides injected, 11 serial dilutions from 10x the FA Kd; 25 °C; Biacore T200; multicycle kinetics fitted to a Langmuir model, Kd from steady state dose-response. In general terms: In SPR one partner is held on a chip, and binding of the other changes the refractive index at the surface.

The target in assay [3] is T1, 14‐3‐3η. In words: ITC; acetylated peptide in the syringe titrated into 14-3-3η in the cell; 25 °C; 25 mM HEPES pH 7.5, 100 mM NaCl, 10 mM MgCl2, 0.5 mM TCEP; MicroCal iTC200. A general note: Isothermal titration calorimetry measures the heat released or taken up as one component is titrated into another.
Assay [4] deals with T2, 14‐3‐3ε (human, UniProt P62258 1-255).
T2 construct: 14-3-3 epsilon, human, full-length protein from the pProEx HTb-His-14-3-3 construct; Written as the protomer; tag removal is told only for the ∆C proteins; source: E. coli BL21(DE3), purified (Ni2+-NTA, dialysis)
T2 sequence (looked up): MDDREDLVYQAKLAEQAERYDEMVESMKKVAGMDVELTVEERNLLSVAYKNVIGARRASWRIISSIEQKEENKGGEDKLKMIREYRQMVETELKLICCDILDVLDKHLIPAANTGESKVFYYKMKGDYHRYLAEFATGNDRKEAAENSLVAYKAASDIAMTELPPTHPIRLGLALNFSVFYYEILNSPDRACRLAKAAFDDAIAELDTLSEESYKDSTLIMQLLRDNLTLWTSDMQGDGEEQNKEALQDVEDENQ
As to the kind of experiment: fluorescence polarisation; fluorescence anisotropy, direct titration: 14-3-3 protein titrated (1/2 dilution series) against 50 nM FAM-Ahx tracer peptide; 10 mM HEPES, 150 mM NaCl, 0.1% Tween 20, 0.1% BSA, pH 7.4; 384 well plates, triplicates; protein concentration as 14-3-3 monomer; 1:1 fit, biphasic curves fitted as two separate 1:1 events (Kd1, Kd2).

For assay [5], the target named is T3, 14‐3‐3τ (human, UniProt P27348 1-245).
T3 construct: 14-3-3 tau/theta, human, full-length protein from the pProEx HTb-His-14-3-3 construct; Written as the protomer; tag removal is told only for the ∆C proteins; also called τ/θ; source: E. coli BL21(DE3), purified (Ni2+-NTA, dialysis)
T3 sequence (looked up): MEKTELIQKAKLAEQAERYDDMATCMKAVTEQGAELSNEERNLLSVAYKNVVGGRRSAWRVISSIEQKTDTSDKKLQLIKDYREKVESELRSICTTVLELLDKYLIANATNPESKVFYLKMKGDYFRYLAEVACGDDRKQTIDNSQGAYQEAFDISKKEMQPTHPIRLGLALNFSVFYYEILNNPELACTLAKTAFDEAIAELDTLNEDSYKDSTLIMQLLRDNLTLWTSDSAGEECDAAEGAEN
Described as above.

The target of assay [6] is T4, 14‐3‐3ζ (human, UniProt P63104 1-245).
T4 construct: 14-3-3 zeta, human, full-length protein from the pProEx HTb-His-14-3-3 construct; Written as the protomer; tag removal is told only for the ∆C proteins; source: E. coli BL21(DE3), purified (Ni2+-NTA, dialysis)
T4 sequence (looked up): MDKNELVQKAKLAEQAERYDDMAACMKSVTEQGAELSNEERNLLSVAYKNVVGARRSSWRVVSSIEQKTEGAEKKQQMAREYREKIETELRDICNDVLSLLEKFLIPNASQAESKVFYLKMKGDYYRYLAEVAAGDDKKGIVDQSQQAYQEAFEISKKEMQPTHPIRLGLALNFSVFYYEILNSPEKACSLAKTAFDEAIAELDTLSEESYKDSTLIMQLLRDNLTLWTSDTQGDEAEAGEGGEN
The assay is described as above.

In assay [7] the target is T5, 14‐3‐3σ (human, UniProt P31947 1-248).
T5 construct: 14-3-3 sigma, human, full-length protein from the pProEx HTb-His-14-3-3 construct (used in the FA assays); Written as the protomer; tag removal is told only for the ∆C proteins; source: E. coli BL21(DE3), purified (Ni2+-NTA, dialysis)
T5 sequence (looked up): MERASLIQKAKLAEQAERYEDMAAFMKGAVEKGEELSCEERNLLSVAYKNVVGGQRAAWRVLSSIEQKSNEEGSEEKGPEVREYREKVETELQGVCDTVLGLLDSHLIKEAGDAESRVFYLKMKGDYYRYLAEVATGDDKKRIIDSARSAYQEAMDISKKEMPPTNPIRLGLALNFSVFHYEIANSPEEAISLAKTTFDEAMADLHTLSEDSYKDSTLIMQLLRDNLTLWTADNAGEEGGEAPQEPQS
The description is as above.

B1: 14‐3‐3β (natural protein, human, UniProt P31946 1-246, looked up)
chain: MTMDKSELVQKAKLAEQAERYDDMAAAMKAVTEQGHELSNEERNLLSVAYKNVVGARRSSWRVISSIEQKTERNEKKQQMGKEYREKIEAELQDICNDVLELLDKYLIPNATQPESKVFYLKMKGDYFRYLSEVASGDNKQTTVSNSQQAYQEAFEISKKEMQPTHPIRLGLALNFSVFYYEILNSPEKACSLAKTAFDEAIAELDTLNEESYKDSTLIMQLLRDNLTLWTSENQGDEGDAGEGEN
notes: 14-3-3 beta, human, full-length protein from the pProEx HTb-His-14-3-3 construct; Written as the protomer; tag removal is told only for the ∆C proteins; source: E. coli BL21(DE3), purified (Ni2+-NTA, dialysis)
As to B1, the “Kd1 (first binding event)” value in assay [1] stood at 0.026 ± 0.099 µM.

B2: Ac‐hDMX_(361‐374) ^pSer367 (peptide)
peptide: Ac-DCRRTI[pS]APVVRPK-NH2
SMILES: CC[C@H](C)[C@H](NC(=O)[C@@H](NC(=O)[C@H](CCCNC(=N)N)NC(=O)[C@H](CCCNC(=N)N)NC(=O)[C@H](CS)NC(=O)[C@H](CC(=O)O)NC(C)=O)[C@@H](C)O)C(=O)N[C@@H](COP(=O)(O)O)C(=O)N[C@@H](C)C(=O)N1CCC[C@H]1C(=O)N[C@H](C(=O)N[C@H](C(=O)N[C@@H](CCCNC(=N)N)C(=O)N1CCC[C@H]1C(=O)N[C@@H](CCCCN)C(N)=O)C(C)C)C(C)C
notes: Acetylated form used for ITC, SPR and crystallography; source: synthetic peptide (Fmoc SPPS, HPLC purified)
In assay [2], B2 gave a Kd of 189 nM, a koff of 0.121 s⁻¹ and a kon of 389000 M⁻¹ s⁻¹. Moreover, in assay [3], the Kd was found to be 870 ± 95 nM, the dH is -3.85 ± 0.0478 kcal/mol and the “stoichiometry N” value turned out to be 1.28.

B3: Ac‐hDMX_(335‐349) ^pSer342 (peptide)
peptide: Ac-SKLTHSL[pS]TSDITAI-NH2
SMILES: CC[C@H](C)[C@H](NC(=O)[C@H](C)NC(=O)[C@@H](NC(=O)[C@@H](NC(=O)[C@H](CC(=O)O)NC(=O)[C@H](CO)NC(=O)[C@@H](NC(=O)[C@H](COP(=O)(O)O)NC(=O)[C@H](CC(C)C)NC(=O)[C@H](CO)NC(=O)[C@H](Cc1c[nH]cn1)NC(=O)[C@@H](NC(=O)[C@H](CC(C)C)NC(=O)[C@H](CCCCN)NC(=O)[C@H](CO)NC(C)=O)[C@@H](C)O)[C@@H](C)O)[C@@H](C)CC)[C@@H](C)O)C(N)=O
notes: hDMX (human double minute 4 protein, hDM4), human, residues 335-349; Acetylated form used for ITC and SPR; source: synthetic peptide (Fmoc SPPS, HPLC purified)
As to B3, in assay [2], the Kd was 37000 nM. For the same molecule, in assay [3], the Kd came to 21000 ± 3000 nM, the dH is -5.11 ± 0.239 kcal/mol and the “stoichiometry N” value stood at 0.72.
With B4, the binding result in assay [4], in assay [5], in assay [6] and in assay [7] was “binds” in each case.

B5: Ac‐hDMX_(335‐373) ^pSer342/pSer367 (peptide)
peptide: Ac-SKLTHSL[pS]TSDITAIPEKENEGNDVPDCRRTI[pS]APVVRP-NH2
SMILES: CC[C@H](C)[C@H](NC(=O)[C@H](CC(=O)O)NC(=O)[C@H](CO)NC(=O)[C@@H](NC(=O)[C@H](COP(=O)(O)O)NC(=O)[C@H](CC(C)C)NC(=O)[C@H](CO)NC(=O)[C@H](Cc1c[nH]cn1)NC(=O)[C@@H](NC(=O)[C@H](CC(C)C)NC(=O)[C@H](CCCCN)NC(=O)[C@H](CO)NC(C)=O)[C@@H](C)O)[C@@H](C)O)C(=O)N[C@H](C(=O)N[C@@H](C)C(=O)N[C@H](C(=O)N1CCC[C@H]1C(=O)N[C@@H](CCC(=O)O)C(=O)N[C@@H](CCCCN)C(=O)N[C@@H](CCC(=O)O)C(=O)N[C@@H](CC(N)=O)C(=O)N[C@@H](CCC(=O)O)C(=O)NCC(=O)N[C@@H](CC(N)=O)C(=O)N[C@@H](CC(=O)O)C(=O)N[C@H](C(=O)N1CCC[C@H]1C(=O)N[C@@H](CC(=O)O)C(=O)N[C@@H](CS)C(=O)N[C@@H](CCCNC(=N)N)C(=O)N[C@@H](CCCNC(=N)N)C(=O)N[C@H](C(=O)N[C@H](C(=O)N[C@@H](COP(=O)(O)O)C(=O)N[C@@H](C)C(=O)N1CCC[C@H]1C(=O)N[C@H](C(=O)N[C@H](C(=O)N[C@@H](CCCNC(=N)N)C(=O)N1CCC[C@H]1C(N)=O)C(C)C)C(C)C)[C@@H](C)CC)[C@@H](C)O)C(C)C)[C@@H](C)CC)[C@@H](C)O
notes: hDMX (human double minute 4 protein, hDM4), human, residues 335-373; Acetylated form used for ITC, SPR and crystallography; source: synthetic peptide (Fmoc SPPS on Rink amide ProTide resin, HPLC purified)
With B5, in assay [2], the Kd was 8.6 nM, the koff was found to be 0.0048 s⁻¹ and the kon stood at 1.51e+06 M⁻¹ s⁻¹. In assay [3], the Kd is 14 ± 10 nM, the dH was -5.28 ± 0.167 kcal/mol and the “stoichiometry N” value was found to be 0.94.
